Columns and labels:
[1] = system: osteoclast precursor cells; assay: Osteoclast differentiation assay, pre-osteoclast cultures exposed to rmIGFBP1, TRAP stain; type: cell-based, mice; settings: 50 ng/mL recombinant IGFBP1, 48 h
Procedure: The quantification of osteoclast differentiation in pre-osteoclast cultures exposed to rmIGFBP1 and stained for TRAP (n=5) is shown in FIG. 6. Furthermore, quantification of osteoclast differentiation in pre-osteoclasts co-cultured with AML12 previously exposed to CRC and treated with anti-IGFBP1 antibody (n=5) is shown in FIG. 7. The osteoclast differentiation assay was conducted as follows:
Bone marrow cells were isolated from at least two 4-month-old wild-type male C57BL/6 mice by flushing the bone marrow out from both tibiae and femora with 10% FBS and 1% P/S-α-MEM. Cells were cultured for 48 h. Non-adherent cells were then collected and 14×10^4 cells/cm2 were seeded on 96-well plates and cultured with RANKL 80 ng/ml (PeproTech) and M-CSF 20 ng/ml (PeproTech) added to induce osteoclast differentiation, the media was changed every 2 days. After 3 days of differentiation, 50 ng/mL of recombinant IGFBP1 or Vehicle (Control) was added to the osteoclast differentiation media for 48 h, after which cells were fixed for staining. […] Images were acquired using Axio Observer. Z1 motorized microscope (Zeiss, Oberkochen, Germany).

C2C12 myotubes = assay: C2C12 myotube size after exposure to recombinant IGFBP1; type: cell-based; settings: recombinant IGFBP1 100 ng/ml, 48 hours
Procedure: (§1) C2C12 myotubes were produced by exposing fully confluent myoblasts to DMEM containing 2% horse serum, 2 mM L-glutamine and 1% P/S, replacing the media every other day for 5 days. At 5 days post differentiation, myotubes were exposed to recombinant IGFBP1 (100 ng/ml) or empty vehicle control for 48 hours. FIG. 9 presents the results.
For myotube size: Differentiated C2C12 myotubes were fixed in ice-cold acetone: methanol for ten minutes, blocked for 1 h at room temperature and incubated overnight at 4° C. with an anti-myosin heavy chain antibody (MF-20, 1:100, Developmental Studies Hybridoma Bank). The following day, myotubes were incubated for 1 h at room temperature with an AlexaFluor 594-labeled secondary antibody (A11032, 1:500; Invitrogen). Myotubes were observed under an Axio Observer.Z1 motorized microscope (Zeiss) and analysis was performed by measuring the diameter of the narrowest portion along the multi-nucleate fibers (n=600 fibers per condition) using ImageJ software.

HSMM myotubes = assay: HSMM myotube atrophy after recombinant IGFBP1; type: cell-based, human
ITGB1 signaling = assay: Western blotting of ITGB1 signaling in myotubes exposed to recombinant IGFBP1; type: cell-based
Procedure: as §1
For western blots (FIG. 9): Cell layer protein extracts were obtained by homogenizing entire well surface in ice-cold RIPA buffer [150 mM NaCl, 1.0% NP-40, 0.5% sodium deoxycholate, 0.1% SDS and 50 mM Tris (pH 8.0)] supplemented with inhibitor cocktails for proteases (11697498001, Roche) and phosphatases (78428, Thermo Fisher Scientific). Following a 10-min incubation on ice, cellular debris was removed by centrifugation (15 min, 14,000 g at 4° C.), the supernatant was collected and protein concentration was assessed using the BCA protein assay method (Thermo Fisher Scientific). Protein extracts (30 μg) were electrophoresed in 4-15% gradient SDS Criterion TGX precast gels (Bio-Rad) and transferred to nitrocellulose membranes (30 min at 100 V; Bio-Rad). […] Blots were again serially washed using PBST and then visualized and quantified using the Odyssey Infrared Imaging System (LI-COR Biosciences). […]

B1: recombinant IGFBP1: recombinant insulin-like growth factor binding protein 1 (protein)
chain: APQPWHCAPCTAERLGLCPPVPASCPEISRPAGCGCCPTCALPMGAACGVATARCAQGLSCRALPGEPRPLHALTRGQGACVPEPAAPATSTLFSSQHEEAKAAVVSADELSESPEMTEEQLLDSFHLMAPSREDQPILWNAISTYSSMRAREIADLKKWKEPCQRELYKVLERLAAAQQKAGDEIYKFYLPNCNKNGFYHSKQCETSLDGEAGLCWCVYPWSGKKIPGSLETRGDPNCHQYFNVHN
[1]
  differentiation of osteoclast precursor cells: sufficient to promote differentiation
[1]; listed as Recombinant IGFBP1
  differentiation of osteoclast precursor cells: promoted
C2C12 myotubes
  atrophy of C2C12 myotubes: promoting atrophy
C2C12 myotubes; listed as Recombinant IGFBP1
  atrophy of C2C12 myotubes: promoted
HSMM myotubes
  atrophy of HSMM myotubes: promoting atrophy
ITGB1 signaling
  ERK phosphorylation: increased
  FAK phosphorylation: increased

Source: patent publication US20240358739A1, “COMPOSITION AND METHOD TO TREAT CACHEXIA” (THE TRUSTEES OF INDIANA UNIVERSITY, priority 2021, published 2024)
